From the DeepSol protein solubility set

Assay: soluble on expression in E. coli; label from the status in PepcDB or PDB records

Row | Sequence | soluble on expression in E. coli
1 | MNMKNELHVISNGHMPFEELVNVAMQIESEIDYLHIREREKSTKELYEGVESLLMEGFPASKIVINDRIDIAILLNIPRVQLGYRSTDVKSVKEKFSYLHVGYSVHSLDEAIVAFKNGADSLVYGHVFPTDCKKGVPARGLEEISDIARCLSIPITAIGGITPENTVDVLTNGVSGIAVMSGIVSSSNPYSKAKSYKESIRKWAEKHV | not soluble
2 | MNNDHLDPINSLNVPELADTTFAMDFLIRAKEGVRNTAVALTETASPDVRALLRKQLMQGIAMHQEITELMISKKWFHPYELSEQYKLDQLSAKNTIMVGNMNLFPDETNRKGMFDRTPDEHMAGDPLEHHHHHH | not soluble
3 | MGSDKIHHHHHHMIKVALLHFGFEDYTIELANSLSKYVDLTLINPKKLSDVCGDAFDPSIRVVSFKKPRIRDPRNLLSMNAMMRIIKDIQPDVLHVQETNDPWYDWTLLLNKMPPLVTTIHDVFRHPGDKVAVFGSEYTRRIAFYRSQQLIVHTHQLKKILIEQFNLPEGRVNVIPHGELGSLYQHRGDRSNQPRDPNTLLFFGRIWPYKGLKYLLEAMPLIAECVPEVKLIIAGRGENIKEYFPNGYDENRYEIINRLIPLEEVSNLFQRSTVTVLPYIEASQSGVAALSYGMGTLVVASDVGGLSEIVQHKKDGLLVPPRDVRALADAIICLLSDRDLQQKMQTAALARCQQDLNWSNIAAQTVEVYQKTMKPIHQ | not soluble
4 | GMAPDQQVPATALGKSSRISLDGRRSERSVILADGSMHSLTLLHPGVYTLSSEVAETIRVLSGMAYYHAEGANDVQELHAGDSMVIPANQSYRLEVMEPLDYLLSS | soluble
5 | MGCGQLDRVDSILVGMSYYNFPSPQGIGNVLVGKAKQTVRIRIPSTNLRKEVVRVGGLLSVSVMAVALSSCSAHPESSLSKSNQLGYAVNDRLVTTNAGSTEGASTNAQLLAGRLYPAPYVSGPKGQLIPNLSMASAQVLPGINQKIVYTISPDAVYSDGEAVTCDDYLLAFTAGTYDYVFDSYMPLMKQIDKVECKPRDREVTVTLKENFGPRWRQLFPAGVILPAHAIARKMGVTLEDLNTVLQSRDVDALQPIAEVWNRGFSLDQFDPDLQVSSGPYKVDRVGDRGEVYLTRNPHYGGQPAEIESVVVWPKGANLKELKDTGSLEIAEVTSSKEIDWLDRNDSTNSFDVQAQSGVLTEELLLANAGVFATRENRQAFASCIDQSSIASESSELSGVEVAPVTARTIRANDPMAGHVKDLTEAHLHSDVEQARRLAGQTIAIGYEGPDARMEAIVANIRRSCEPAGIIVVDAHQEGSGIRDLSRSFTTDHGYQFDKIGTIDVVLKALDPATEFESVATTSNNIAATRQAELSTWDVVPSIPLASQPRVFVVDRRVSNVVLNTDLAGIGWNMDRWFFSKNSK | not soluble
6 | MKYQLTALEARVIGCLLEKQVTTPEQYPLSVNGVVTACNQKTNREPVMNLSESEVQEQLDNLVKRHYLRTVSGFGNRVTKYEQRFCNSEFGDLKLSAAEVALITTLLLRGAQTPGELRSRAARMYEFSDMAEVESTLEQLANREDGPFVVRLAREPGKRENRYMHLFSGEVEDQPAVTDMSNAVDGDLQARVEALEIEVAELKQRLDSLLAHLGD | soluble
7 | MARILVIEDEPLVGHMLRRFLERAGHDVVWAPNGEVGLRRLAEGFDLVVCDLIMPGIPGEEVIRRIREEAGPPVLAVSASVSRESQRRALEAGAQAFLGKPFEAQAFLRVVEGLLRGT | soluble
8 | MNINTDIFKIQSNNVMPSRGKILISEPFLHDVTFGRSVVLLVDHTEEGSMGLIINKPLPLMLNDIIKEFKYIEDIPLHKGGPIGTDTLFYLHTLHEIPGTLPINNGLYLNGDFDAIKKYILQGNPIKGKIRFFLGYSGWECEQLIQEIKENTWIISKEENTYLMNEDIKGMWKEALGKLGSKYETWSRFPQVPSLNLEHHHHHH | not soluble
9 | MAHHHHHHMAKLLPPPFHGYIRKMFFPLRNAASASRKCCLHTHVQQKNGMMKTTPLISKRSYFTSLYDTKTEKTKLMNEMDDLYDHILTSNWNDSVHLVLNVSIWEGILNSIEDKVKLYEQDEDIMKKKKIINEIFDVLFILEDLRDHVNELLEQSSRASGLAGTHILASFKIENMNEHIEFLKTKYDELLLKYPLYKYQIDMVLGKGLALLRQKYNFEWRHMHNFFF | not soluble
10 | GVSIRSMKNFYDWIKEFVRDQGEFIAQQSGWLELERSSYAKLIAQTISHVLNGGSLLVSADSSRHWFLNYILSNLNPKDLKERPLLSVIDFNASSFYPKNDANLSLATIEMTYQNPMFWHVGKIENEGLKTILLSKIPSFLWLFEELKEDCLLLKEHDSLLDYKLLQLFKLFENALFSVLYNKVTL | soluble
11 | MNASLTPDQVSKKLKQFFSDHLPISQFMGLEIESYDGDTLILTAPLEPNINDKQTAFGGSLYNAAVMACWGMVYLKTQEENIACNQVVTEGNMKYIAPVYGRIRAICHAPDEEELANFFDHFERKGKARISLEAAIYNDACVMKIEPETKPSVKFNGQYAILKNQ | soluble
12 | MEVEIEDIDEVATLTETDIVEIQTKLIEDLQEMVVKDKEKHEKLLKLGEHVLDEQTRLRTRLSEEFGDFLNRSKRSLTRNFETADGNVYSFEKNLRELLHLYITVHNRVKQDEKEVAKQDEFLNQIDRNEMELKDLRDNIRSLRSELTVDVGPVSSVTSKTSGIEANFIVKPYKPLETELATQIVRVNRELEILKMQLPNCDHFPNLMNPVQKLGEKVTGMVMKDLPAKKLQDFLDTLPPMKRD | not soluble
13 | MLTEEKEDYLKAILTNNGDKNFVTNKILSQFLNIKPPSVSEMVGRLEKAGYVETKPYKGVRLTEDGLTHTLDIIKRHRLLELFLIEILKYNWEEVHQEAEILEHRISDLFVERLDSLLNFPETCPHGGVIPRNNEYKEKYITTILNYEPGDIVTIKRVRDKTDLLIYLSSKDISIGNEVEIVSKDEMNKVIIIKRNDNVIIVSYENAMNMFAEK | not soluble
14 | MNQKDTRKETLEFNKLQKRLRRNVGNAITDYNMIEEGDVVMACISGGKDSFAMLDILLNLQKAAPIKFEVVAVNLDQKQPGFPEHILPEYFETLNIPYYIVDKDTYSVVKEKVPEGKTTCGLCSRLRRGTLYSFAEKIGATKLALGHHMDDIVETMFLNMFHGSRLKAMPPKLRSDDGRNVVIRPLTYCREKDLIKYAEHKDFPIIPCNL | not soluble
15 | SNAMHILVTGFAPFDNQNINPSWEAVTQLEDIIGTHTIDKLKLPTSFKKVDNIINKTLASNHYDVVLAIGQAGGRNAITPERVAINIDDARIPDNDDFQPIDQAIHLDGAPAYFSNLPVKAMTQSIINQGLPGALSNSAGTFVCNHTLYHLGYLQDKHYPHLRFGFIHVPYIPEQVIGKPDTPSMPLEKIVAGLTAAIEAISNDEDLHLALGTTE | soluble
16 | MAHHHHHHSLIISSLTNPNFKVGLPKVIAEVCDYLNTLDLNALENGRHDINDQIYMNVMEPETAEPSSKKAELHHEYLDVQVLIRGTENIEVGATYPNLSKYEDYNEADDYQLCADIDDKFTVTMKPKMFAVFYPYEPHKPCCVVNGKTEKIKKLVVKVPVKLIEG | not soluble
17 | AIAMWQDQPMPSMDLVKNAFWNYVSQATLTAEETLQMIRNSELGQEINDRISKSTDAINKYTLAIQSQVTPLTQELLTKLSKEADQLKLSLEQEITSAQTQLKPYVEELKVDIEEQIERLKKDVAPYAEALNPEAMRLTLVQRAEELKAKLETSLMAMGPQSEELKQKLEQHFVEFQMSMSPLAESFQSQLAQRSQELQKNLAPYSEELSKLDPLAQDLKDQLTALWESFAKDKQS | soluble
18 | MTDRKIRQISALLIEVYNGIMQVEDKYLRTTQFRDITVKEVHTIDAITMYDYKTTTAVARQLRLSPGTVTASIDKLVRKGYVVRLQSKDDQRVIRLGLTRRGRLIYRAHQSFHRQMTESFLNGMDPEQVDIIEHSLLNLQTFLQIADEKGDSNEND | not soluble
19 | MAKIYYDEDASLDILKDKVIAILGYGSQGHAHALNLRDSGLNVIIGLHEGSRSREKAKADGFEVYTPREAAKRADIIMFLIPDTVQPEVYKNEVEPELNSSKTLAFAHGFNIHFRQIVPPKDVDVFMVAPKGPGHLVRWMYTEGKGVPALVAIHQDASGTCKDKALAYAKGIGATRAGVIETTFKEETETDLFGEQMVLCGGVTALIKAGFETLVNAGYQPEVAYFECLHELKLIVDLIYEHGISGMRYSISDTAKYGDVTRGERIYKVVKPVMEKTLEEIQKGEFAREWILENKAGRPVYYALLERDREHLVEKVGEELRKMMPWLGKKELK | soluble
20 | MKFIVKLQAEITIKSRPVRKRFTKILESSVKNVLRRIDEQVTTRMNWDNIEVNTKDNSPENRERLVEALKCIPGIPMFLEVQQSEFVDVHDIYEKTLAVHAESIENKTFCVRAKRTGNHDFNSLKVEQYVGGGLNQQVESAKVKLKNPDVTIHLEIKNKDLFIVTQRHKGLGGFPIATQEDVLSLMSGGFDSGVSSYQMIKKGARTHYCFFNLGGSAHEVGVKQISYYLWNKFGASHKVKFFAVDFEPVVAEILENVENSQMGVVLKRMMIRAATKIAERGKIQALVTGESLGQVSSQTLTNLNVINRVTDTLILRPLAAYDKQDIIDIARKIGTEEFSKTIPEYCGVISKKPTVKAVLSKVEEEEGNFDFDVLDKVVSETRVYDIRDIGKEAEEEIHAVDLVENIPENAVVVDIRSPEEEEDKPLELGDVEVKHIPFYKLSTQFGDLDMTKEYLLYCDHGVMSKLQALYLLDNGFKNVKVYRP | not soluble
21 | MKMINKLIVPVTASALLLGACGASATDSKENTLISSKAGDVTVADTMKKIGKDQIANASFTEMLNKILADKYKNKVNDKKIDEQIEKMQKQYGGKDKFEKALQQQGLTADKYKENLRTAAYHKELLSDKIKISDSEIKEDSKKASHILIKVKSKKSDKEGLDDKEAKQKAEEIQKEVSKDPSKFGEIAKKESMDTGSAKKDGELGYVLKGQTDKDFEKALFKLKDGEVSEVVKSSFGYHIIKADKPTDFNSEKQSLKEKLVDQKVQKNPKLLTDAYKDLLKEYDVDFKDRDIKSVVEDKILNPEKLKQGGAQGGQSGMSQ | soluble
22 | MAHHHHHHMESAIGLSVPLYQPHAPAPGAVIDPDMVEDHVSFLRTVRAFHDYKRQALAAREMRCTNFRKLQDQHRHLLCIDLDKILEKYLECIKVNSAFFDAICEASEELFDSYWPEGTTVFMKEVPPPTPLDMNKVFSTLRQFVRDWSAEGVAERDCVYKPILDTLDRCFPNRSERENVRVLIPGAGLCRLSVELALHGFFAQANEFSYHMLIAGHYIQNHVFESCQHKIYPYSDSTCNLVNRADQFAEVQIPDLCASEAIDALRDKGLSFGQLSMVAGDFTEVYAKPHQHKTWSVVATCFFIDTAHNIIEYLVIIYNLLVPGGYWVNVGPLLYHFADSADDMSIELSLGEVLTVAQRIGFVLNGPPSFIDTTYTNNQRSMKQLVYRCAFFVLQRPLADRQTEQMDRNVEAKVT | not soluble
23 | GSGSGSDIEAYLERIGYKKSRNKLDLETLTDILQHQIRAVPFENLNIHCGDAMDLGLEAIFDQVVRRNRGGWCLQVNHLLYWALTTIGFETTMLGGYVYSTPAKKYSTGMIHLLLQVTIDGRNYIVDAGSGRSYQMWQPLELISGKDQPQVPCVFRLTEENGFWYLDQIRREQYIPNEEFLHSDLLEDSKYRKIYSFTLKPRTIEDFESMNTYLQTSPSSVFTSKSFCSLQTPDGVHCLVGFTLTHRRFNYKDNTDLIEFKTLSEEEIEKVLKNIFNISLQRKLVPKHGDRFFTI | soluble
24 | MGSDKIHHHHHHMAQQDRLQQMREWIKTTPEISLDQLMGEYRISRDTARRDLIQLEREGKIIRVKNGLIRVGTNTTIQYDRRTEQPEKNRIAKHAVRYVQPDQTIILDAASTVARMTVHLPAQPIQIITNALAVVEQLEARPEIDLYVTGGKWDRHARSLVGIKTADDILNYQVDRVFLGACGLTEQGVFAENLEEAIVKKAMIRSSAEVIVLADHTKFEKRFLHKVCDLDQIDILITDERPTEQWQKWLQEADILLETAEEE | not soluble
